Assay [1] has as its target zonula occludens 1 (rat alveolar epithelial cells) (rat). The assay can be described thus: STORM co-localization, untransduced rat AECs.
Assay [2] has the same target. The assay can be described thus: STORM co-localization, rat AECs without YFP-claudin-5.
For assay [3] the target is unchanged. Put plainly: STORM co-localization, rat AECs transduced with YFP-claudin-5.
Assay [4] deals with T1, zonula occludens 1 (rat alveolar epithelial cells) (rat, UniProt A0A0G2K2P5 1-1765).
T1 construct: Endogenous cytoplasmic protein within primary rat AECs (not a surface protein); also called ZO-1
The assay can be described thus: STORM co-localization in rat AECs (FIG. 4C).

zonula occludens 1 (rat alveolar epithelial cells) (rat), sequence (A0A0G2 entry or part of it limits assumed): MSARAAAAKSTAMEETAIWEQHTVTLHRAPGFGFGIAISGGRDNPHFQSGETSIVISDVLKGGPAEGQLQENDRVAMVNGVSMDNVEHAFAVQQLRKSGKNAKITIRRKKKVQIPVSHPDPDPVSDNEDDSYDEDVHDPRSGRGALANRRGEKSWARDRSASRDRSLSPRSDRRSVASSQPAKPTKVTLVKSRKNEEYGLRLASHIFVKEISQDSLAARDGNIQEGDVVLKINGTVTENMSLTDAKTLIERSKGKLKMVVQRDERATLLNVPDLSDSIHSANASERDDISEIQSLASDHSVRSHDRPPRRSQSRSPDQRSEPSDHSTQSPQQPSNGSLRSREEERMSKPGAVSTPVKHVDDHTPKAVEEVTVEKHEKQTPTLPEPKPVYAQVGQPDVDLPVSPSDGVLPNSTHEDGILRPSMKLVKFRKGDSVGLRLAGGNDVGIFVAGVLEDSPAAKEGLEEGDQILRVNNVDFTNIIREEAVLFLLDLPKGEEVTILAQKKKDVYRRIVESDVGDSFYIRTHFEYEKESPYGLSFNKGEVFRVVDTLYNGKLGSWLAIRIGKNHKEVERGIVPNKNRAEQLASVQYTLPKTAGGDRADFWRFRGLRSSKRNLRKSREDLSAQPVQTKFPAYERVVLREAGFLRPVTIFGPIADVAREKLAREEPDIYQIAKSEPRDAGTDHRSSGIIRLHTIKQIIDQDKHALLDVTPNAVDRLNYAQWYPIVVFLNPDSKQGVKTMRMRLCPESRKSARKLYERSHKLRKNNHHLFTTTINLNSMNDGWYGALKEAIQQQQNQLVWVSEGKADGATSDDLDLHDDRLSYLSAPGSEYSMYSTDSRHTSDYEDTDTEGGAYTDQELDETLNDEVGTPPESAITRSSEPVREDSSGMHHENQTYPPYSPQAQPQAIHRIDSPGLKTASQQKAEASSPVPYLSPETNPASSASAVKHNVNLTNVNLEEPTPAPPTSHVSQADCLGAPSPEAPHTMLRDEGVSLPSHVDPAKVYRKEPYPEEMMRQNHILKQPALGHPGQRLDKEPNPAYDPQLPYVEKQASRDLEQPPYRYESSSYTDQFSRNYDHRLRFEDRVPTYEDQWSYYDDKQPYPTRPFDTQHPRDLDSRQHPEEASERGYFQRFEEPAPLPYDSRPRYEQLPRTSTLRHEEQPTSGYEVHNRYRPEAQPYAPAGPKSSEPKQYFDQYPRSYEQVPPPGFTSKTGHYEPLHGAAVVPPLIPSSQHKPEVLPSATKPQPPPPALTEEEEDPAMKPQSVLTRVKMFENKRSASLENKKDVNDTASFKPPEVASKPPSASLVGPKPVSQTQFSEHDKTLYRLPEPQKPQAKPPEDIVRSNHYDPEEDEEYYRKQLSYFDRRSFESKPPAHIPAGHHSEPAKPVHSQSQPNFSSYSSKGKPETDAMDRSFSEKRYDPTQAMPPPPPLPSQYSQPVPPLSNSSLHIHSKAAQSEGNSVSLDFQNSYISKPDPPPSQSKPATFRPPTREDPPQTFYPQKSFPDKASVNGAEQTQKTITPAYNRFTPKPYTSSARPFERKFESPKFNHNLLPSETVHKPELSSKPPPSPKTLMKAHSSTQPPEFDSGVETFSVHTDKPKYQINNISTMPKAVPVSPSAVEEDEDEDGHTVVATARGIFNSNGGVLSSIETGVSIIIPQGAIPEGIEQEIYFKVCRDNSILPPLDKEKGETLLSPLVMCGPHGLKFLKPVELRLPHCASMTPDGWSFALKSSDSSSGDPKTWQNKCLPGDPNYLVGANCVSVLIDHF
T1 sequence (A0A0G2K2P5 whole entry): as the sequence (A0A0G2 entry or part of it limits assumed) above

“native claudin-18 (rat alveolar epithelial cells) (from UniProt Q5I0E5 1-261)” gave a co-localization index in assay [1] of 30.5%. The results for the co-localization in assay [2] and in assay [3] were 31% and 16%, respectively.

B1: native claudin-5 (rat alveolar epithelial cells) (other, UniProt Q9JKD6 1-218, looked up)
chain: MGSAALEILGLVLCLVGWVGLILACGLPMWQVTAFLDHNIVTAQTTWKGLWMSCVVQSTGHMQCKVYESVLALSAEVQAARALTVGAVLLALVALFVTLTGAQCTTCVAPGPVKARVALTGGALYALCGLLALVPLCWFANIVVREFYDPTVPVSQKYELGAALYIGWAASALLMCGGGLVCCGAWVCTGRPEFSFPVKYSAPRRTTANGDYDKKNYV
notes: whole, on cells; Endogenous protein in primary rat AECs from control-fed or alcohol-fed rats; detected with antibodies (co-immunopurification, STORM, PLA); also called Cldn-5
B1: in assay [4], the binding result was “binds”.

The values above are taken from patent US20200331965A1 (EMORY UNIVERSITY, published 2020).
